Results from PMC2265524, “ruvA Mutants That Resolve Holliday Junctions but Do Not Reverse Replication Forks” (PLoS Genetics, 2008).

T1: wild-type RuvB protein (E. coli) (UniProt P0A812)
T1 sequence: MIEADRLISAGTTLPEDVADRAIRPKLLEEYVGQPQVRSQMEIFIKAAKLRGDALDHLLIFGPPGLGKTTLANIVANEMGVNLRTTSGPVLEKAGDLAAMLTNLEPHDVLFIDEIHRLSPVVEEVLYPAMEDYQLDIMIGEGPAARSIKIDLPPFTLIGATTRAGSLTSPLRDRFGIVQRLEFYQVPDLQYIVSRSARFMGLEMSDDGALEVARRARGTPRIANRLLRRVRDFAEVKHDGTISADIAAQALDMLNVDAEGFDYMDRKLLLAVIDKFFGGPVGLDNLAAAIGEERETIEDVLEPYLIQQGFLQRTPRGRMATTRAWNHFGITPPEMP

T2: RuvA wild type (Escherichia coli, UniProt P0A809 1-203)
T2 sequence: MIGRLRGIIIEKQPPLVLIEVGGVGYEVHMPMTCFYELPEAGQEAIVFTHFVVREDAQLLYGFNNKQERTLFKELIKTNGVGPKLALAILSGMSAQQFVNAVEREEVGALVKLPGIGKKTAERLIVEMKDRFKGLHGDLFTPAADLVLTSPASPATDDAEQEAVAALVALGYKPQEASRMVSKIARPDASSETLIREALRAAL


Assays:
[1] = molecular target: T1, wild-type RuvB protein (E. coli)
[2] = molecular target: the molecule itself; assay: SDS-PAGE without boiling the protein samples; purified RuvA mutant proteins run on SDS-PAGE without boiling; tetramer band under denaturing gel conditions; data not shown
RuvA wild type = molecular target: T2, RuvA wild type; assay: EMSA; EDTA; complexes I and II; EMSA with ~4-5 ng labelled DNA; 5 mM EDTA (gel 0.5x TBE) or 3 mM MgCl2 without EDTA (gel 0.5x TB + 200 uM MgCl2); buffer as in cited ref 18; salt, pH and temperature not stated; settings: protein: recombinant; chain copies: 4; label: 5' IRD700 on S24 (IT.01); four-way junction of 4 strands

Binder | stoichiometry N [2] | also measured
wild-type RuvA (natural protein) MIGRLRGIIIEKQPPLVLIEVGGVGYEVHMPMTCFYELPEAGQEAIVFTHFVVREDAQLLYGFNNKQERTLFKELIKTNGVGPKLALAILSGMSAQQFVNAVEREEVGALVKLPGIGKKTAERLIVEMKDRFKGLHGDLFTPAADLVLTSPASPATDDAEQEAVAALVALGYKPQEASRMVSKIARPDASSETLIREALRAAL | – | RuvA concentration required for RuvB (250 nM) to unwind 50% of a labelled 52-mer annealed to phiX174 ssDNA (DNA helicase assay) [1]: 100 nM
RuvAz3 (natural protein, E. coli, UniProt P0A809 1-203, looked up, RuvA of E. coli with the three mutations H29R K129E F140S; Purification steps and expression construct of the mutant proteins are in the supplementary material (Text S1); also called ruvAz3 (H29R K129E F140S); pGB-ruvAz3; source: over-expressed in E. coli and purified) MIGRLRGIIIEKQPPLVLIEVGGVGYEVRMPMTCFYELPEAGQEAIVFTHFVVREDAQLLYGFNNKQERTLFKELIKTNGVGPKLALAILSGMSAQQFVNAVEREEVGALVKLPGIGKKTAERLIVEMEDRFKGLHGDLSTPAADLVLTSPASPATDDAEQEAVAALVALGYKPQEASRMVSKIARPDASSETLIREALRAAL | 4 | –
RuvAz87 (natural protein, E. coli, UniProt P0A809 1-203, looked up, RuvA of E. coli with the two mutations N79D N100D; Purification steps and expression construct of the mutant proteins are in the supplementary material (Text S1); also called ruvAz87 (N79D N100D); ruvA87; source: over-expressed in E. coli and purified) MIGRLRGIIIEKQPPLVLIEVGGVGYEVHMPMTCFYELPEAGQEAIVFTHFVVREDAQLLYGFNNKQERTLFKELIKTDGVGPKLALAILSGMSAQQFVDAVEREEVGALVKLPGIGKKTAERLIVEMKDRFKGLHGDLFTPAADLVLTSPASPATDDAEQEAVAALVALGYKPQEASRMVSKIARPDASSETLIREALRAAL | 4 | –
X12 (synthetic Holliday junction) (structured_DNA) DNA 1: GACGCTGCCGAATTCTACCAGTGCCTTGCTAGGACATCTTTGCCCACCTGCAGGTTCACCC DNA 2: TGGGTGAACCTGCAGGTGGGCAAAGATGTCCTAGCAATGTAATCGTCAAGCTTTATGCCGTT DNA 3: CAACGGCATAAAGCTTGACGATTACATTGCTAGGACATGCTGTCTAGAGGATCCGACTATCGA DNA 4: ATCGATAGTCGGATCCTCTAGACAGCATGTCCTAGCAAGGCACTGGTAGAATTCGGCAGCGT | – | binding result (RuvA wild type): binds
